Reference: the DeepSol protein solubility set

Assay: soluble on expression in E. coli; label from the status in PepcDB or PDB records

Row | Sequence | soluble on expression in E. coli
1 | MAHHHHHHMSEQNGAHSLQAELERMNAAIESYALQLDTINSAIESIDSENHSDDVSRQIFEYQTACERDPANISAEDALDTVTRLENTLKIVRRRNQLLAKENATQQKLLNDRSKFLLKETKNYENLVDRTGWHEQCSLNPEDEAQKASDIQEMSQLEVTVQRELRAAHTILKKKEALLRGLEEQLAKGTDLDAELNNAYNDIRVRKRECRELELRLEHLRKCSKKNDEALTVFENHGQSVSIEYMETDKDFLKDAVAQMKLVCRRQDNVIRAQLTRQQQLQTRLDTILRSLREMNLEKEYERNVSKSALVPSASREEPEDVSSILPKEETIPIHTYRLIFKNKELMNTNVVRKNMLVLEKEGVIQALEASLMKYANALNMTTRQLENMKINKGFEMTELMVELQQQHKNYLQQLEQIMQENNKLKKQLYRTPQLRTLIKNR | not soluble
2 | MELLCPAGNLPALKAAIDNGADAVYIGLKDDTNARHFAGLNFTDKKLQEAVNYVHSRKRKLHIAINTFAHPDGYARWQRAVDMAAQLGADALILADLAMLEYAAERYPQVERHVSVQASATNDEAIRFYQRHFDVARVVLPRVLSMHQVKQLSRTSPVPLEVFAFGSLCIMAEGRCYLSSYLTGESPNTVGACSPARFVRWQQTPQGMESRLNDVLIDRYEDHENAGYPTLCKGRYRVDGQRYHALEEPTSLNTLELLPELFAANIASVKIEGRQRSPAYVSQVAKVWRQAIDLYQANPAQFAAKAEWMEQLGAMSEGTQTTLGAYHRKWQ | not soluble
3 | MLMPRQTTPPLSLPLVGGGRFDLSAETSTRWTLICFYRGLHCPICATYLKELEKRVADFAERGVACVAVSSDSEERAQAMAEKVGGGTLRFAYDLPLAEARDWGLYISTSRGKTSIGIEEPALFSEPGLFLVTPERTLYYGAVQTMPFVRPHFSELVAALDFAIPNNYPARGEYTGAV | soluble
4 | MTVDTEKQQVVRPRNEIAAADCWDVSPLYPNREDWKADLDSFGLKTDGSPTWPELQATQYQLEDSESLLSLLTKLFSVERKLDKLYVYAHLVHDQDITNQEGVADLKSITHLHILFSEEISWIQPALIGLSEPIIAQHLSAPCLAPYRFYLEKIFRLSMHTGTPGEEKILASAFAPFEVASKAFSSLSDSEIPFGQAMDSEGNSHPLSHALASLYMQSTDRELRKTAYLAQCERYYNYRHTFANLLNGKIQAHLFYAKNKKYGSCLESALYHNNIPTTVYTNLMDIVKKNASLITKYYSLKQKALNIKDFHFYDVYAPLSQSEEKKYSYEEAVDLIYDSLSPLGTEYVDILKQGLTTEGWVDKYENLNKRSGAYSSGCYDSYPYILLNYTGTLYDVSVIAHEGGHSMHSYFSRKNQSFHDAQYPIFLAEIASTLNEMLLMDSMLKKSNSKEEKITILTRCLDTIFSTLFRQVLFASFEYEVHSAAEQGIPLTEEYLSSTYKNLQNDFYGGIITFDTLSNIEWARIPHFYYNFYVYQYATGIIAALCFAERILNKEDNALESYMNFLKSGGSDFPLEILKKSGLDMATSEPIYKAFSFIERKIQELSSLI | soluble
5 | MLDFEKPLFEIRNKIDSLKESQEKNEVDLQDEIDMLEASLKRETTKVYTNLKPWDRVQIARLPERPTTLDYIPYIFDSFIELHGDRSFRDDPAMIGGIGYLDGKSVTVIGQQRGKDTKDNIYRNFGMAHPEGYRKALRLMKQAEKFNR | not soluble
6 | MIMATLVITIGNDDCVNEGINIICNQCRPIYMNEDNKIIVNVVGEEKFGAGHNAEYITKQVDKHLGIIRDYIIEGLTDCYVEYDENGKEIFIPKTK | not soluble
7 | MSLNSPIQAVIFDWAGTIVDFGSFAPTSIFVEAFKQGFDFEISLAEAREPMGLGKWQHIEAVGKLPTVAQRWQKQFGRPMQASDIDAIYAAFMPLQIAKVADHAAPIPHSLEVVEQIRSRGIKIGSCSGYPRQVMDVLIAAAADYGYRPDYVVATDDLAQGGRPAPFMALKNVIELGVTDVRACVKVDDALPGIEEGHNAGMWTVGLLLSGNEAGLTLEEYQHADDQTLQAARERAQAKLQQAKPHYLIDTVADLPAVLAQIEQRLLAGEREGHHHHHH | soluble
8 | MGSDKIHHHHHHMRPTENGVLHLRKKFVASLLAVAIASTTACAQLGISKEQAGTVIGGLAGVAIGSTMGSGNGKIAAALIAGGIGAYVGNRIGHMLDEKDQQALALRTQEVLSQQQTTASAQPVTWKSDHSGATAQIVPGKEYTKTKQVEVKRAPKIQAVPSMKLINEPYVTISDNLNVRAAPNQAGEKVGSLKNHTEFTAVGSTGDWILVGRKGVTVGYVHKNYVEPKAQAVAKRVTPAVNLDELDVAASKETQGFDLDSVQSLPTQTVAAEAACRPVTVSLKSQSGQTEQEQNTFCKQANGTWELI | not soluble
9 | KVGISMFNILQSTQLSSNTFDFWLEAPRIATHAQAGQFVILRIDEKGERIPLTIAETNPQAGSIRIIFQVIGKTTAALSQLKTSDSLLDITGPLGMPTEVKQYGTVMVVGGGVGIAAIYPIIKALKEAGNRVITILGARTAELVLLQEECRRYSDELIITTDDGSLGKKGLVTEAMEEVIARESVACSWAIGPSIMMKFCTLTAEKHQLPIYVSLNPIMIDGTGMCGGCRVTVDGTMKFACVDGPEFKGNEVNWDEFINRMKQYQEEEAVCFTDRLKEQVEKNG | not soluble
10 | MGSDKIHHHHHHMGNIEIKRVIAHHMDLGATKPTFLNNVIDISQEEMQDVIVFFGNHVKKALTTAQLKTCVFKNEDDEVYKYCKELAEDQSDDKLFVRVTRRMTIKLFYNMKRTSSTSSATLIFLHYFNVDSGKDYLGILKMDPNDGIELDPERVVFKVRKHMLPNVKERLHKSAFIKLDEKLFAEESHLYVLDKQQKMDGISKFFLEAFLNAKEVNSDKKTTAFFNTAVMEVARSEKVPNMFAIAKKVSDSMTEGKYIKVDSMLEEVLHDFIPGEEDRFDFIERVKQQMKKKNEDVQFEFTVEKEKEAISFLHNDDKSIQLRFKSILLGTDVFYDEEEDEDGNKFIVLKIREKNIESNFEFKK | not soluble
11 | MGSDKIHHHHHHMTVWRFKKSQKGLVGVDITSATVKLIELESSGAGHRIASYAVRPLHEGAVVERRIRDLDEVANTLTRAVEHARPHSRRAVAAVPASAAITKTLTYPASLTDDEIEARIQLESERHIPFPLNEVAFDFQRLGLNARYPDQQDILLVACRLQDVDRLADVLRRAGLEPAAVDVETFAMERAAGELLLGQAASQPDDECVALVDIGANMNAFHVLIDGRIAYTRDNVLGGRHLTEEIRKRYGLSLEEAGLAKKRGGLPEDYELEVLTPYIDMLIQQVGRSLQLYYTSGKPRDIQRLVLAGGSSVIPGLRERLAAQSGLEVVMANPFSRMRVASRVDVQALASDAPAMLTACGLAMRGRR | not soluble
12 | MIVAFENNVVCSDEKVRDYLLAHHADLKEDQDEDALCLVRLHKEEDIDGTDRVDLAGWREISRELYWTGEQMECNYSIIRFSRKTTSLQMSVVLSTCNQLEWLEKVLWGYEAQDTKNFELIIADDGSRKETYDMLQRITPQLSFQVKHVWHEDKGFRKCDILNKGILAAQADYLLFSDGDCIPRKDFVSTHLCLRRKGRFLSGGYHKLSMDLSKDITKDDILSGRCFDLQWMRGKGMPASFKNNKLTATGFKRWALNTFTPTKASWNGHNASGWLSDILAVNGFDERMQYGGQDREFGERLENYGIHGMQIRYSTVCLHLDHARGYKTKDSIQKNRNIRKHTRGAKVQWASLGIVKDELRGQSVKVNSYYDRYTREEEKLTSYKEKGGFYRHIYSLPCRWRRAKYHDKVVRAYQQDTDAPALSNHSGVIVSLTTFPPRISQLHLMLKSILWQTCPPEKIIVWLSEQEFPGRLNDLPEELKRLMAKGIAFRFVSENFRSHKKYHYVFREYPDSKVITVDDDLIYPRNTVERLLSLSYQYPDTVCGNVIRKIHMDGNSFSVYRKWTKVFTMPVNSSLQNVAIGCGGIYYPPHWYGEELFDWKIISEHCPSADDLWLKANELKRRVKVTGGGEFYPRPIELPQTQNNSLQKKNNGKTNLNDKQWKSLNELWKLDELYCINGK | not soluble
13 | MSLKITAVEPFILHLPLTSESISDSTHSITHWGVVGAKITTSDGIEGYGFTGTHAHLPSDRLITSCISDCYAPLLLGEDASDHSRLWTKLARYPSLQWVGRAGITHLALAAVDVALWDIKAKKAGVPLWHYLGGARTAGVEAYNTDIGWLSFTLEDLLAGSARAVEEDGFTRLKIKVGHDDPNIDIARLTAVRERVDSAVRIAIDGNGKWDLPTCQRFCAAAKDLDIYWFEEPLWYDDVTSHARLARNTSIPIALGEQLYTVDAFRSFIDAGAVAYVQPDVTRLGGITEYIQVADLALAHRLPVVPHAGEMSQVHVHLSYWHPASTILEYIPWIKDHFEEPIHVRDGVYKRPEQPGASTTPLAESFTRYGKAVKEGHHHHHH | soluble
14 | SLQPEAPKPPQIGMANPASVYCQQKGGTLIPVQTAQGVSNNCKLPGGETIDEWALWRLDHPAGEK | soluble
15 | MLSIHDPLLIFTDLDGTLLNSHTFEWQPAAPWLTRLHESGVPVILCSSKTAAEMLQLQTTLNLQGLPLIAENGAVIQLDVHWEDHPNYPRLIAGISHNEIRLVLHKLREKEQFKFTTFDDVDDQVISEWTGLNRAQSALTRLHEASVSLIWRDSDERMAQFVARLNDLGLQFVHGARFWHVLDASAGKDQAANWLIEAYRRQWRARPLTLGLGDGPNDAPLLDVMDYAVVVKGLNREGVHLRNDDPQRVYRSQNEGPDGWREGMDYFFSRSLEHHHHHH | soluble
16 | MSKIFEDNSLTIGHTPLVRLNRIGNGRILAKVESRNPSFSVKCRIGANMIWDAEKRGVLKPGVELVEPTSGNTGIALAYVAAARGYKLTLTMPETMSIERRKLLKALGANLVLTEGAKGMKGAIQKAEEIVASNPEKYLLLQQFSNPANPEIHEKTTGPEIWEDTDGQVDVFIAGVGTGGTLTGVSRYIKGTKGKTDLISVAVEPTDSPVIAQALAGEEIKPGPHKIQGIGAGFIPANLDLKLVDKVIGITNEEAISTARRLMEEEGILAGISSGAAVAAALKLQEDESFTNKNIVVILPSSGERYLSTALFADLFTEKELQQ | soluble
17 | GSNSQVWSALQMSKALQDSAPDRPSPVERIVSRDIARGYERIPIPCVNAVDSEPCPSNYKYVSQNCVTSPMNIDRNITHLQYCVCIDDCSSSNCMCGQLSMRCWYDKDGRLLPEFNMAEPPLIFECNHACSCWRNCRNRVVQNGLRARLQLYRTRDMGWGVRSLQDIPPGTFVCEYVGELISDSEADVREEDSYLFDLDNKDGEVYCIDARFYGNVSRFINHHCEPNLVPVRVFMAHQDLRFPRIAFFSTRLIEAGEQLGFDYGERFWDIKGKLFSCRCGSPKCRHS | soluble
18 | MKRYGNLYQEIINFENILIASRQAQKSKRFRDNVLDFNYHLETELIKLQKHLTDKTYQPGAYRTFRLTNPKSRLISAAPYRDRVVHHALCNIIVPIFERAFVADSYANRIGFGTHRALKKFTHSARNSPYVLQCDIRKYFPSIDHIILKELIRRKIKCPDTLWLIDTIIDNSNEQETVIDYFAGDDLLSPITRRKGLPIGNLTSQFFANIYLNGFDKIIKEELKISKYVRYVDDFALFSDDRELLADARLAIEAYLAELRLKIHPIKSQLFETKIGATFLGFRIFSHKIRVRNSNLHQARRRLKRLKTDYAQGKLELNQVTQSMRSWIAHLEHGDTWRLRKQIFTSLHFRRKLEHHHHHH | soluble
19 | MGSDKIHHHHHHMDLENKFSYHFLEGLTLTEDGILTQGNEQVYIPQKELGVLIVLLESAGHVVLKDMIIESVWKNIIVSDESLTRCIYSLRCIFEKIGYDRCIETIYRKGYRFSGQVFKTKINEDNTSDYSIAIFPFTTSLNTLDPLILNQELVQIISNKKIDGLYTYPMAATNFCNDHISQNSFLSRFKPDYFVTGRINQNNAVNTLYIELIDAKNLFLIASNHLPVDELHNTSQFIIDNILQTVHKPERSVRLAKQDQGYKNHYLSDEMLAGKKELYDFTPESIYRAMTIFDRLQNKSDIQTLKTECYCLLAECHMSLALHGKSELELAAQKALELLDYVSDITTVDGKILAIMGLITGLSGQAKVSHILFEQAKIHSTDIASLYYYRALVHFHNEKIEEARICIDKSLQLEPRRRKAVVIKECVDMYVPNPLKNNIKLYYKETESESHRVIIDNILKLKQLTRICMR | not soluble
